These results are taken from patent US20110171285A1, “Design of Fibrinogen and Fibrinogen Derived Products with Reduced Bacterial Binding by Using Modified Sequences of Fibrinogen Chains” (priority 2009, published 2011).

In this assay the target is human platelet integrin αIIbβ3 (human), P08514. Kind of assay: competition ELISA: integrin αIIbβ3 coated, 10 nM human Fg added with varying peptide, bound Fg detected with anti-Fg antibodies/HRP. Background: An ELISA detects its analyte on a solid surface through an enzyme-linked reagent.

GQQHHLGGAKQAGDV (modifications not checked) [human 15-mer C-terminal Fg γ-chain peptide (…)] yielded an IC50 (read off the curve) of 10 µM.
